Laboratory results as given in US20080096187A1.

Experiments:
Assay in all cases: cell-based or functional assay
[1] = molecular target: HIV-2 7312A envelope glycoprotein (HIV-2 isolate 7312A)
[2] = molecular target: HIV-2 7312A envelope glycoprotein with substitutions 660 (K to A), 662 (N to D), 663 (S to K) and 665 (D to A) (HIV-2 isolate 7312A)
[3] = molecular target: HIV-1 YU2 envelope glycoprotein (HIV-1 YU2) (UniProt P35961)
[4] = molecular target: HIV-2 UC-1 envelope glycoprotein (HIV-2 UC1) (UniProt Q76638)
[5] = molecular target: HIV-2 7312A envelope glycoprotein with substitutions 675 (L to I) and 676 (A to T) (HIV-2 isolate 7312A)
[6] = molecular target: HIV-2 ST envelope glycoprotein (HIV-2 ST) (UniProt P20872)
[7] = molecular target: HIV-2 7312A/V434M envelope glycoprotein (HIV-2 isolate 7312A)
[8] = molecular target: HIV-2 7312A/H419R envelope glycoprotein (HIV-2 isolate 7312A)
[9] = molecular target: HIV-2 7312A/Q422L envelope glycoprotein (HIV-2 isolate 7312A)

Row | Substance | IC50 (neutralization) [1] [µg/mL] | IC50 (neutralization) in the absence of sCD4 [1] [µg/mL] | IC50 (neutralization) in the presence of sCD4 [1] [µg/mL] | IC50 (neutralization) [2] [µg/mL] | IC50 (neutralization) [3] [µg/mL] | IC50 (neutralization) in the absence of sCD4 [4] [µg/mL] | IC50 (neutralization) in the presence of sCD4 [4] [µg/mL] | IC50 (neutralization) [5] [µg/mL] | IC50 (neutralization) [4] [µg/mL] | IC50 (neutralization) [6] [µg/mL] | IC50 (neutralization) in the absence of sCD4 [7] [µg/mL] | IC50 (neutralization) in the presence of sCD4 [7] [µg/mL] | IC50 (neutralization) in the absence of sCD4 [8] [µg/mL] | IC50 (neutralization) in the presence of sCD4 [8] [µg/mL] | IC50 (neutralization) in the absence of sCD4 [9] [µg/mL] | IC50 (neutralization) in the presence of sCD4 [9] [µg/mL]
1 | 2F5 (antibody) | > 50 | > 25 | > 25 | < 0.1 | 25 | > 25 | > 25 | – | – | – | – | – | – | – | – | –
2 | 2G12 (antibody) | – | > 25 | > 25 | – | – | > 25 | > 25 | – | – | – | – | – | – | – | – | –
3 | 4E10 (antibody) | > 50 | – | – | – | 25 | – | – | 0.8 | 1.2 | 0.1 | – | – | – | – | – | –
4 | A32 (antibody) | – | > 25 | > 25 | – | – | > 25 | > 25 | – | – | – | – | – | – | – | – | –
5 | E51 (antibody) | – | > 25 | > 25 | – | – | > 25 | 13 | – | – | – | > 25 | 4 | > 25 | 22 | > 25 | > 25
6 | ED47 (antibody) | – | > 25 | > 25 | – | – | > 25 | > 25 | – | – | – | > 25 | > 25 | > 25 | 4.7 | > 25 | > 25
7 | ED49 (antibody) | – | > 25 | 5.4 | – | – | > 25 | 12 | – | – | – | > 25 | 2.4 | > 25 | 3.3 | > 25 | 3
8 | F105 (antibody) | – | > 25 | > 25 | – | – | > 25 | > 25 | – | – | – | – | – | – | – | – | –
9 | X5 (antibody) | – | > 25 | > 25 | – | – | > 25 | > 25 | – | – | – | > 25 | 2.5 | > 25 | > 25 | > 25 | > 25
10 | b12 (antibody) | > 50 | > 25 | > 25 | – | 3 | > 25 | > 25 | – | – | – | – | – | – | – | – | –
